Here are results for 10 molecules from patent US20250230253A1 (Memorial Sloan Kettering, published 2025).

One assay deals with T1, mouse CD40 (mouse, UniProt P27512 20-193, limits assumed).
T1 construct: Recombinant mouse CD40 protein for ELISA; The construct and tag are not described; also called mCD40
T1 sequence (looked up): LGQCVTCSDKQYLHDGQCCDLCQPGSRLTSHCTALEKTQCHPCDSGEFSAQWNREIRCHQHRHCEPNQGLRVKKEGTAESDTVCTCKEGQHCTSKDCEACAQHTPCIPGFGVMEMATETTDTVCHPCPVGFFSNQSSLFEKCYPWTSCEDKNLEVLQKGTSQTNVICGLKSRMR
In words: ELISA on recombinant mouse CD40 protein, hybridoma supernatant. (In general: In an ELISA, binding on a coated surface is turned into a signal by an enzyme label.)

Assay [1] concerns the target T2, human CD40 (human, UniProt P25942 21-193).
T2 construct: Recombinant protein coated for ELISA; The primary screen used 'soluble, His-tagged human CD40 (full-length and IgC2)'; also called huCD40; hCD40; not shown: His tag
In words: ELISA of subcloned hybridoma supernatants on hCD40, anti-mouse IgG-HRP detection. How it is done:
Next, the hybridomas were selected for subcloning to identify monoclonal antibodies against CD40. Briefly, cells were plated at a 1 cell per well density in 384-well plates, confirmed by microscopy, and expanded. After expansion, supernatants were screened by ELISA against hCD40. The mAbs were detected using anti-mouse IgG-conjugated to HRP.

Assay [2] concerns the target T2, human CD40. Kind of assay: ELISA on recombinant human CD40 protein, hybridoma supernatant.

T2 sequence (P25942 21-193 limits assumed): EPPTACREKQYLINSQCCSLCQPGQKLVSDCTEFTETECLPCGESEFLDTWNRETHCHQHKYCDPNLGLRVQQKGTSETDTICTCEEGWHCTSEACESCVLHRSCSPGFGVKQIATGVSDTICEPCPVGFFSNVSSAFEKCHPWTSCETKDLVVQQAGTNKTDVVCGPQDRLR

B1: anti-CD40 antibody 41-E17 (antibody, V domains shown)
VH: DVQLVESGGGLVQPGGSRKLSCAASGFTFSTFGMHWVRQAPEKGLEWVAYISGGSSTIYYADTVKGRFTISRDNPKNTLFLQMTSLRSEDTAMYYCVRPYGSVHYAMDYWGQGTSVTVSS
VL: DIQMTQTTSSLSASLGDRVTISCRASQDINNYLNWYQQKPDGTVKLLIYYTSRFHSGVPSRFSGSGSGTDYSLTISNLEQEDIATYFCQQGNTLPWTFGGGTKLDIK
notes: Mouse hybridoma monoclonal antibody tested as hybridoma supernatant and detected with anti-mouse IgG-HRP
As to B1, the figures for the binding result in the assay with mouse CD40 and with human CD40 [1] were “no binding” and “binds”, respectively.

B2: anti-CD40 antibody 10-B8 (antibody, V domains shown)
VH: QVQLQQPGSVLVRPGASVKLSCKASGFTFATSWMHWAKERPGQGLEWIGQIHPNSGNTNYNEKFKGKATLTVDTSSSTAYVDLSSLTSEDSAVYYCARGADYAMDYWGQGTSVTVSS
VL: DVLMTQTPLSLPVSLGDQASISCRSSQSIVHSNGNTYLEWYLQKPGQSPKLLIYIVSNRFSGVPDRFSGSGSGTDFTLKISRVEAEDLGVYYCFQGSHVPWTFGGGTKLEIK
notes: as for B1
As for B2, in the assay with human CD40 [2], the binding result is listed as “binds”.

B3: anti-CD40 antibody 10-K9 (antibody, V domains shown)
VH: EVQLVESGGDLVKPGGSLKLSCAASGFTFSSYGMSWVRQTPDKRLEWVATISSDGSHTYYPDSVKGRFTISRDIAKNTLYLQMSSLKSEDTAMYYCVRQGRYVPSFDVWGAGTTVTVSS
VL: DIVLTQSPATLSVTPGDSVSLSCRASQSIRNNLHWYQQKSHESPRLLIKDASQSISGTPSRFSGSGSGTDFTLSINSVETEDFGMYFCHQTNNWPFTFGSGTKLEIK
notes: as for B1
Take B3: the binding result with human CD40 [2] is “binds”; with mouse CD40, “no binding”.

B4: anti-CD40 antibody 9-P1 (antibody, V domains shown)
VH: QVQLQQSGAELMKPGASVKISCKATGYTFSTYWIEWVKQRPGHGLEWIGEILPGSGSTNYNEKFRGKATFTADTSSNTAYMQLSSLTSEDSAVYYCARSYYTYDQGSWLAYWGQGTLVTVSA
VL: DIVMSQSPSSLAVSVGEKVTMTCKSSQSLLYSGNQKNYLAWYQQKPGQSPKLLINWASTRESGVPDRLTGSGSGTDFSLTISSVKAEDLAVYYCQQYYSYPYTFGGGTKLEIK
notes: as for B1
Regarding B4, in the assay with human CD40 [1], the binding result was “binds”.

B5: anti-CD40 antibody 39-K17 (antibody, V domains shown)
VH: QVQLQQPGAELVKPGASVKLSCTASGYIFTNYWMNWVKQRPGRGLEWIGRIHPSDSESLYNQKFKSKAILTVDKSSSTAYIQLSSLTSEDSAVYYCARSPLTKVVTTDFWGQGTTLTVSS
VL: EIVLTQSPAIMPASPGEKVTMTCSASSSVNYMHWYQQKSGTSPKRWIYDTSKLASGVPVRFSGSGSGTSYSLTISSMEAEDAATYYCQQWSSNPLTFGGGTKLEIK
notes: as for B1
On to B5, for which the results for the binding result with mouse CD40 and in the assay with human CD40 [1] were “no binding” and “binds”, respectively.

B6: anti-CD40 antibody 41-J9 (antibody, V domains shown)
VH: DVQLQESGPDLVKPSQSLSLTCTVTGYSITSDYSWHWIRQFPGNKLEWMGYIYYSGSTNYNPSLKSRISITRDTSKNQFFLQLNSVTSEDTATYYCARFYYGWSYFDYWGQGTSLTVSS
VL: EIVLTQSPAIMPASPGEKVTMTCSASSSVNYMHWYQQKSGTSPKRWIYDTSKLASGVPVRFSGSGSGTSYSLTISSMEAEDAATYYCQQWSSNPLTFGGGTKLEIK
notes: as for B1
Turning to B6, the binding result is given as “no binding” with mouse CD40 and “binds” with human CD40 [1].

B7: anti-CD40 antibody 41-I22 (antibody, V domains shown)
VH: EVQLQQSGAVLVKPGASVRLSCTASGFNIKDTYIHWVKQRPEQGLEWIGKIDPANGNTKFDPKFQGKATIAADTSSNTAYLQLSSLTSEDTAVYYCARDYYGTIFPYWYFDVWGAGTTVTVSS
VL: QIVLTQSPAIMSASPGEKVTITCSASSSVSYMHWFQQKPGTSPKFWIYITSNLASGVPARFSGSGSGTSYSLTISRMEAEDAATYYCQQRSSYPLTFGAGTKLELK
notes: as for B1
On to B7, for which the figures for the binding result with mouse CD40 and with human CD40 [1] were “no binding” and “binds”, respectively.

B8: anti-CD40 antibody 30-P15 (antibody, V domains shown)
VH: EVMLVESGGALVKPGGSLKLSCAASGFTFSNYAMSWVRQTPEKRLEWVATIGTSGSYTYYSDSVKGRFTISRDNARNTLYLQMTSLRSEDTAMYYCARRGYYNPTHAMDYWGQGTSVTVSS
VL: QAVVTQESALTTSPGETVTLTCRSSTGAVTTSNYANWVQEKPDHLFTGLIGGTNNRAPGVPARFSGSLIGDKAALTITGAQTEDEAIYFCALWYSNHLVFGGGTKLTVL
notes: as for B1
As to B8, the binding result is reported as “no binding” in the assay with mouse CD40 and “binds” in the assay with human CD40 [1].

B9: anti-CD40 antibody 26-I22 (antibody, V domains shown)
VH: QVQLQQPGAELVKPGASVKLSCKASGYTFINYWINWMRQRPGQGLEWIGNIYPGSSSTTYNEKFKSKAALTVDTSSSTAYMQLSSLTSDDSAVYFCARSVGYWYFDVWGAGTTVTVSS
VL: DIVMSQSPSSLAVSVGEKVTLSCKSSQSLFFSGNQKNFLAWYQQKPGQSPNLLIFWASTRESGVPDRFTGSGSGTDFTLTISSVKAEDLAVYYCQQYYSYPFTFGSGTKLEIK
notes: as for B1
On to B9, for which the binding result with human CD40 [1] is “binds”.

B10: anti-CD40 antibody 12-O17 (antibody, V domains shown)
VH: QVQLQQSGAELMKPGASVKISCKATGYTFSTYWIEWVKQRPGHGLEWIGEILPGSGSTNYNENFKGKATFTADTSSNTAYMQLSSLTSEDSAVYFCARGGLYYYGGAMDYWGQGTSVTVSS
VL: DIVMSQSPSSLAVSVGEKVTMSCKSSQSLLYSGNQKNYLAWYQQKPGQSPKLLIYWASIRESGVPDRFTGSGSGTDFTLTISSVKAEDLAVYYCQQYYSYPYTFGGGTKVEIK
notes: as for B1
Turning to B10, the values for the binding result with mouse CD40 and in the assay with human CD40 [1] were “no binding” and “binds”, respectively.
